Assay [1] deals with T1, IκBα (Homo sapiens, UniProt P25963).
T1 sequence (P25963 1-317): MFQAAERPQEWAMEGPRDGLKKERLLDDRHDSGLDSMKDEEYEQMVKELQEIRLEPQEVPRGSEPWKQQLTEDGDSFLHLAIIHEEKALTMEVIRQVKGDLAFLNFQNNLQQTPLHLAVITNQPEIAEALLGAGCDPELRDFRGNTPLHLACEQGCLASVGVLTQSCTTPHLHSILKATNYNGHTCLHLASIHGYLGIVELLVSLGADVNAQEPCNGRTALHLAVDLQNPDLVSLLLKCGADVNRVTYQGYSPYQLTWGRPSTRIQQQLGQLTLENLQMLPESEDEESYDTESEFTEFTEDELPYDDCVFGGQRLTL
The experiment in a line: In vitro IκBα ubiquitination assay with HeLa cell extract. Particulars: cell free system, two different concentrations.
Protocol: HeLa cells were harvested by centrifugation at 4,000 rpm. The packed cell volume was estimated, and the cells osmotically lysed by the addition of 5 volumes of hypotonic buffer (10 mM Tris-Cl, pH 7.9, 1.5 mM MgCl2, 10 mM KCl, 0.2 mM PMSF, 0.5 mM DTT). The mixture was incubated on ice for 10 minutes, then homogenized with 12 strokes of a Dounce homogenizer (B Type pestle). The crude lysate was centrifuged for 15 minutes at 4,000 rpm, followed by recentrifugation of the supernatant at 100,000×g for 30 minutes. This supernatant was concentrated by the addition of solid (NH4)2SO4 to 80% saturation, stirred at 4° C. for 30 minutes and centrifuged for 15 minutes at 12,000 rpm. The precipitate was resuspended in 1/5 volume of 20 mM Tris-Cl pH7.6, 20 mM KCl, 5 mM MgCl 2, 1 mM DTT, 0.5 mM PMSF, 5 μM Chymostatin and 20 μM E64, and dialyzed against >500 volumes of 20 mM Tris-Cl pH 7.6, 20 mM KCl, 5 mM MgCl2, 1 mM DTT, 10% glycerol at 4° C. overnight and stored at −70° C. until use.
PR-39 or control peptides were also added to individual reactions. […] The samples were then heated for 5 minutes at 95° C. and analyzed by SDA-PAGE on 4-15% acrylamide gradient gels (BioRad, Hurcules, Calif.). After electrophoresis, the gels were incubated with gentle stirring in 30% methanol 10% acetic acid, dried and analyzed using a Fuji phosphorimager. […]

The test system of assay [2] is IκBα. The assay is described as follows: IκBα protein levels in ECV304 cells by Western blotting. It is filed as cell-based, human. Particulars: ECV cells, 2 hr exposure, 100 or 50 nM. The procedure:
For IκBα expression studies, normally proliferating wild type ECV304 cells (ECV) or ECV-PR-39 and ECV-E4 cells were lysed in the loading buffer, subjected to electrophoresis on 10% SDS-PAGE gel and transferred to a PVDF membrane. IκBα expression was then determined by Western blotting with anti-IκBα antibody (Santa Cruz, Inc.). ECV304 cells treated for 2 hr with 10 μM of lactacystin (LC) were used as control.
Western blotting of ECV cell lysate was carried out following 2 hr exposure to buffer (0) or 100 or 50 nM of PR-39. […] Clearly, exposure of wild type ECV304 cells to the synthetic PR-39 peptide led to a dose-dependent increase in IκBα levels.
On the technique in general: Immunoblotting shows a protein as a band on a membrane.

Assay [3] relates to IκBα. The experiment in a line: TNF-α induced degradation of IκBα in U937 cells. It is filed as cell-based, human. As to conditions: 45 min pretreatment with 100 nM, TNF-α 1 ng/ml, 10 min. As for the experimental part:
Tumor necrosis factor (TNF)-α is known to induce rapid degradation of IκBα by the Ub-proteasome pathway.
As shown by FIG. 1E, PR-39 prevents TNF-a induced degradation of IκBα. U937 cells were cultured in 10% FBs-RPMI medium in the absence (−) or presence of TNF-a (1 ng/ml). 10 min following TNF-α addition, the cells were washed and IκBα protein levels assessed by Western blotting.
Note that a […] 45 min of pretreatment with 100 nM of PR-39 or 10 μM of MG132 or lactacystin (LC) prior to addition of blocked TNF-α, blocked cytokine-induced degradation of IκBα expression.

The target in the next assay is T2, 20S proteasome (Homo sapiens, UniProt P25788).
T2 construct: endogenous in cells; host or cells: ECV304 cells stably expressing porcine PR-39 constructs
The assay is described as follows: Co-immunoprecipitation of PR-39 and 20S subunits in ECV cells. It is filed as binding. As to conditions: ECV304 cells transfected with PR-39 constructs; anti-PR-39 antibody. From the text:
In order to confirm that PR-39 and the a7 subunit interact in cells, a polyclonal anti-PR-39 antibody was used to immunoprecipitate PR-39 protein from EVC304 cells transfected with cDNA constructs corresponding either to the full length (EVC-PR-39) or exon 4 (39 amino acid C-terminal domain) (ECV-E4) of the porcine PR-39 gene.
Full-length porcine cDNA (containing the leader sequence) and a cDNA construct corresponding to the 4th exon of porcine PR-39 gene were cloned into eukaryotic expression vector pGRE5-2 (USB) and used to stably transfect an immortalized human endothelial cell line (ECV304, ATCC). For co-immunoprecipitation, wild type ECV, full-length PR-39 (ECV-PR-39) and exon 4 PR-39 (ECV-E4) transfected cells were cultured in 10% FBS-M199. Cells were lysed with the RIPA buffer, and equal amounts of total protein were pre-cleared with non-immune rabbit serum and protein G plus/protein A-agarose beads (Calbiochem). The cleared samples were incubated at 4° C. overnight with 20 μl of polyclonal anti-PR-39 antibody and 40 μl of protein G plus/protein A-agarose beads or with the beads alone. […]

Assay [4] concerns the target T3, α7 subunit of the 20S proteasome (Mus musculus, UniProt O70435).
T3 construct: made in house; host or cells: yeast (Y190 for the screen, CG1945 for the deletion analysis)
T3 sequence (O70435 1-255): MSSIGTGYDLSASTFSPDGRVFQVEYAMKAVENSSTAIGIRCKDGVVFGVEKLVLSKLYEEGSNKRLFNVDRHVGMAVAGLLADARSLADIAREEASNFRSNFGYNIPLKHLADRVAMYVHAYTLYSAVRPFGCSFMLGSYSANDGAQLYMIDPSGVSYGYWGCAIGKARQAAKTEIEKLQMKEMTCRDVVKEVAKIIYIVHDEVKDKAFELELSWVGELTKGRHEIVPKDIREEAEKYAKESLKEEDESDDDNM
The assay is described as follows: Yeast two-hybrid binding of PR-39 to α7 and its fragments. Particulars: growth of lacZ+ colonies on selective medium; deletion mutants of mouse α7. From the text:
Two-hybrid screening was done using Clontech MATCHMAKER GAL4 System 2 (Clontech). cDNA of porcine PR39 peptide corresponding to the 4th exon (amino acids 131 to 169) was subcloned into pAS2-1 vector as bait. Mouse embryo 3T3 MATCHMAKER cDNA library (Clontech) was screened in the yeast Y190 strain. Plasmids from HIS3/LacZ positive clones were sequenced and co-transformed with bait plasmid back into the Y190 strain to confirm the interaction.
To identify possible intracellular targets of PR-39 peptide action, a yeast two-hybrid screen of mouse CDNA library was performed using the unique 4th exon DNA sequence of porcine PR-39 gene as “bait”. […] All four clones encoded overlapping identical cDNA sequences which are highly homologous to the sequence of the human α7 (HC8) subunit of the 20S proteasome (GeneBank accession AF055983).
Deletion mutants of the mouse α7 subunit were cloned into yeast two-hybrid vector, and the extent of growth of lacZ+ colonies on selective medium following co-transformation with PR-39 construct in the yeast CG1945 was determined.

In another assay the test system is NFκB. The assay is described as follows: NFκB electromobility shift assay in mouse pancreas, caerulein-induced pancreatitis. The assay is classed as in vivo. Particulars: 10 mg/kg i.v. 1 hour before caerulein; 30 min later.

Ends that are not written are not given here.

Turning to “RRRPRPPYLPRPRPPPFFPPRLPPRIPPGFPPRFPPRFP [PR-39]”, in the assay with IκBα [1], the “IκBα ubiquitination in vitro” value is reported as “failed to affect IκBα ubiquitination”. In addition, the IκBα protein levels entry in the assay on IκBα [2] is “dose-dependent increase in IκBα protein levels”. The “TNF-α caused decline of the level of IκBα” value in the assay with IκBα [3] was “markedly reduced”. For the same sequence, the “binding to 20S proteasome (co-immunoprecipitation of α7 and α2 subunits)” value in the assay with 20S proteasome is “can bind to the 20S proteasome particle via an interaction with the a7 subunit”. The “binding of PR-39 to α7 and its fragments” value in assay [4] is listed as “only the full length a7 construct was able to bind to PR-39”. Moreover, the “NFκB gel shift in mouse pancreas” value with NFκB is “almost complete disappearance of NFκB gel shift”.

Values taken from US7169604B1, “Method for PR-39 peptide mediated selective inhibition of IκBα degradation” (Beth Israel Deaconess Medical Center, priority 1998, dated 2007).
